According to patent US20250250335A1 (SHENGHE CHINA BIOPHARMACEUTICAL, published 2025):

Legend:
[1] = biological target: T1, CEACAM6 on the surface of the tumor cells (HPAFII cells) (UniProt P40199 35-320); test: flow cytometry on HPAFII cells (Mean PE); the cells carry CEACAM5 and CEACAM6, signal not divided between the two
T1 construct: whole, on cells
T1 sequence (looked up): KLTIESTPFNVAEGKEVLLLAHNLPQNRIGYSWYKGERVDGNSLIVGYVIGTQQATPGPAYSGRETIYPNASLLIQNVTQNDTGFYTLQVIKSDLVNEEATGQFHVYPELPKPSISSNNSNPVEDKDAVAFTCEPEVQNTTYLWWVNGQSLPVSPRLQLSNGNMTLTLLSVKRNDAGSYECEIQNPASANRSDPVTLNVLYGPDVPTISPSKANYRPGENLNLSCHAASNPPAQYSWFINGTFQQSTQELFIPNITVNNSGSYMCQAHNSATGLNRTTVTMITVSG
Description: Centrifugation (1000 rpm, 5 min) was performed, followed by washing with PBS, re-centrifugation, and repeated twice to remove media residues. The supernatant was discarded, 100 μL of primary antibody solution and irrelevant antibody solution were added to the experimental group and irrelevant antibody group, respectively, and the cells were resuspended and incubated at room temperature for 1 h. The blank group, and the negative control group were incubated with an equal amount of PBS.
(§1) After 1 h, PBS was added to wash twice. After the supernatant was discarded, 100 μL of fluorescent secondary antibody dilution (Secondary antibody from Abcam ab98596) was added to each sample group, except for the blank group which was added with 100 μL of PBS. After incubation at room temperature and protected from light for 0.5 h, centrifugation was performed and PBS added to wash the samples twice. After the supernatant was discarded, 120 μL of PBS was added to resuspend and sequentially flow cytometry was performed to detect the mean fluorescence intensity. The concentration of the antibody was logarithmically taken as the horizontal coordinate, and the Sigmoidaldose-response (VariableSlope) method (GraphPadPrism Software, GraphPadSoftware, San Diego, California) was chosen to perform a nonlinear regression to obtain the binding activity curves of the antibody on HPAFII cells.

[2] = biological target: T2, CEACAM5 on the surface of the tumor cells (HPAFII cells) (UniProt P06731 35-685); test: flow cytometry on HPAFII cells (Mean-FITC); the cells carry CEACAM5 and CEACAM6, signal not divided between the two
T2 construct: whole, on cells
T2 sequence (looked up): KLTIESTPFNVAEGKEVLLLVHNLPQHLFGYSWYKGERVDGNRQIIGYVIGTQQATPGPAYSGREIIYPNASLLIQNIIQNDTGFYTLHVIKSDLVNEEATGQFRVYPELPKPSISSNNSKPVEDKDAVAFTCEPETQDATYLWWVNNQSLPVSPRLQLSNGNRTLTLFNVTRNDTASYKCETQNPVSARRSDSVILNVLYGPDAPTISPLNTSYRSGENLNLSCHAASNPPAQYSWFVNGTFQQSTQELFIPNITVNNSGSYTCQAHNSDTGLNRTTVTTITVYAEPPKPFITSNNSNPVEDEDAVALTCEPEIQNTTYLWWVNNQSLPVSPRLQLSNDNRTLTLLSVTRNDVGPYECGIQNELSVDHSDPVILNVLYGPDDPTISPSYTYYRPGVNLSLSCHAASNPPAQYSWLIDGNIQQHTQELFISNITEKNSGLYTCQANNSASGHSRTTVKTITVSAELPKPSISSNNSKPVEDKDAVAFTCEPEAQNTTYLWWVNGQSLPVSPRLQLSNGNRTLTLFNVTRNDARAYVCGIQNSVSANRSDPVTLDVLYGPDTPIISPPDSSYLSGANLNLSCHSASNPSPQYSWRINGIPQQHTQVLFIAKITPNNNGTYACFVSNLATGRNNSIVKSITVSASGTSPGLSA
Description: (§2) The antibody to be tested was taken as the initial concentration of 200 nM and diluted 5-fold with 6 gradients. The HPAFII cells (From USTC […] FOR ADVANCED STUDIES) in the incubator were taken out, and the cell suspension was transferred to a 15 mL centrifuge tube, centrifuged, and counted by resuspension in PBS. A blank control group (Blank), a negative control group (NC), an experimental group, a positive control group and the irrelevant antibody group were kept. […] The cell suspension was spread in a 96-well plate according to about 3×10⁵ cells/well. Centrifugation (1000 rpm, 5 min) was performed, followed by washing with PBS, re-centrifugation, and repeated twice to remove media residues. The supernatant was discarded, 100 μL of primary antibody solution and irrelevant antibody solution were added to the experimental group and irrelevant antibody group, respectively, and the cells were resuspended and incubated at room temperature for 1 h. The blank group, and the negative control group were incubated with an equal amount of PBS.
as §1, with “(Mouse-derived secondary” for “(Secondary”, “ab6785)” for “ab98596)”

[3] = biological target: T1, CEACAM6 on the surface of the tumor …; test: as above
Description: as §2
as §1, with “(Mouse-derived secondary” for “(Secondary”, “ab6785)” for “ab98596)”

[4] = biological target: T3, human CEACAM5-his (ACRO CE5-H5226) (human, UniProt P06731 35-685); test: ELISA on coated human CEACAM5, OD450
T3 construct: Bought protein; not shown: His tag
T3 sequence (looked up): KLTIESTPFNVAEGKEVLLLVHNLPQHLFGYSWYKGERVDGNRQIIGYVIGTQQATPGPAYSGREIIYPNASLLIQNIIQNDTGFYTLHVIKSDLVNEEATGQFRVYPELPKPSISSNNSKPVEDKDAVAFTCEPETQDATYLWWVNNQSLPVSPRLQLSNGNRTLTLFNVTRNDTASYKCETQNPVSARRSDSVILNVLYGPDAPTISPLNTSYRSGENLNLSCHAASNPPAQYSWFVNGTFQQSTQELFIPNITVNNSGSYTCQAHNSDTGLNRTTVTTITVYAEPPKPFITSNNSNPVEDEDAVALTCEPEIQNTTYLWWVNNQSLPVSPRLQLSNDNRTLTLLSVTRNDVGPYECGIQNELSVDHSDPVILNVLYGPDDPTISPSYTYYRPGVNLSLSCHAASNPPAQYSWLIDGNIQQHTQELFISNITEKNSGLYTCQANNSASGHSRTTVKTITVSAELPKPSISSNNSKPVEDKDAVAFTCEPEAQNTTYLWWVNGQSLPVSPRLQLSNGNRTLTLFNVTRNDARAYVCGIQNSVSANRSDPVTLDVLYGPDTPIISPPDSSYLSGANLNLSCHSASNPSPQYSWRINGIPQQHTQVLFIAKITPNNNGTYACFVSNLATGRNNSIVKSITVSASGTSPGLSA
Description: (§3) The binding activity of the antibodies to human CEACAM5, human CEACAM6, and human CEACAM6 (AB) proteins was detected by ELISA. The plate coated with proteins was incubated at 4° C. overnight, and the 96-well ELISA plate blocked with 2% PBS-BSA was added with the antibody to be detected and incubated at 37° C. for 1 h. After washing 3 times with PBS containing 0.05% Tween, the absorbance value of each well was read at wavelength 450 nm with the gradient-diluted mouse-derived candidate antibody as the primary antibody and anti-mouse-IgG-FC-HRP as the secondary antibody, and the absorbance value of each well was read at wavelength 450 nm after the TMB color development.

mouse CEACAM5 = biological target: T4, mouse CEACAM5 (mouse, UniProt Q3UKK2 35-947, limits assumed); test: ELISA on coated protein, OD450
T4 sequence (looked up): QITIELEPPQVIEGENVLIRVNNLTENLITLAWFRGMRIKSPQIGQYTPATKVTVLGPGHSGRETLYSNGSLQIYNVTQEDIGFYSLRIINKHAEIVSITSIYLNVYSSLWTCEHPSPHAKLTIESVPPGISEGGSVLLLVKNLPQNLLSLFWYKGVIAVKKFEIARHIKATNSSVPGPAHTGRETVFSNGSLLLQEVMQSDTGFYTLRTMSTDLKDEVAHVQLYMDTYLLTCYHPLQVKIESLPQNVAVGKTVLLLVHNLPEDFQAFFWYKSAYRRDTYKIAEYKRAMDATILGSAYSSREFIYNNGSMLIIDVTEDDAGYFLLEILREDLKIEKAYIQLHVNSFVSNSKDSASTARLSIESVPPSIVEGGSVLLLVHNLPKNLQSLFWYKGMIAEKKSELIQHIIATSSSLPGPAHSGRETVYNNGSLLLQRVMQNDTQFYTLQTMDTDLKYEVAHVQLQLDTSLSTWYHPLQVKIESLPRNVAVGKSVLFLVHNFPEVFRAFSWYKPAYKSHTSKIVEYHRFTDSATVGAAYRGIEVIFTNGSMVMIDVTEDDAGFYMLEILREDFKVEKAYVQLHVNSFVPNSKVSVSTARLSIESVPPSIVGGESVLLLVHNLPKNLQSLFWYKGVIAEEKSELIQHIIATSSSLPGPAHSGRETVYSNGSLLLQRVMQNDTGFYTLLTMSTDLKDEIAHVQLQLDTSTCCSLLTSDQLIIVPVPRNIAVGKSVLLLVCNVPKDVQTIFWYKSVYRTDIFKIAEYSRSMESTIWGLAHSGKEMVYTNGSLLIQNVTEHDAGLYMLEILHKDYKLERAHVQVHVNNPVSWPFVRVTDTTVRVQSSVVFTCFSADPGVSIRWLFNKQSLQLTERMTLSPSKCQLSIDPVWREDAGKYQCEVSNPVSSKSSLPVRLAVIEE
Description: The affinity of the antibodies to monkey CEACAM5, monkey CEACAM6, and mouse CEACAM5 proteins was determined by ELISA. The plates encapsulated with […] proteins were incubated at 4° C. overnight, and the antibodies to be detected were added to 96-well ELISA plates after being blocked with 2% PBS-BSA and incubated at 37° C. for 1 h. After washing 3 times with PBS containing 0.05% Tween, the absorbance value of each well was read at wavelength 450 nm with the antibody to be detected as the primary antibody and Goat anti-mouse IgG-FC-HRP as the secondary antibody, and the absorbance value of each well was read at wavelength 450 nm after the TMB color development. The specific binding to CEACAM5 and CEACAM6 of mouse and monkey was detected by Elisa method.

Human-CEACAM6 (AB)-His = biological target: T5, Human-CEACAM6 (AB)-His (human, UniProt P40199 145-314); test: ELISA on coated human CEACAM6 (AB), OD450
T5 construct: Made in house, purified on a nickel column
Description: as §3

T5 sequence (P40199 other isoform, or with tags, fused parts or gaps limits assumed): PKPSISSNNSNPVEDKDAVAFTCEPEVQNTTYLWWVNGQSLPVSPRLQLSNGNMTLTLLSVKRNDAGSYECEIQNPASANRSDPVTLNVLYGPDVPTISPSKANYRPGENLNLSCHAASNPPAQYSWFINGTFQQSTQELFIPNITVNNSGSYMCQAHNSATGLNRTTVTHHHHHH

B1: Antibody F (antibody, human IgG1, kappa, V domains shown)
VH: EVQLVESGGGLVQPGGSLRLSCATSEFTLIDYYMSWVRQAPGKALEWVGYIRNKVNGHTTDYIASVKGRFTISRDDSKNSLYLQMNSLKTEDTAVYYCVRDPGINWYFDVWGQGTLVTVSS
VL: QIVLTQSPATLSLSPGERATLSCRASSRVTYMHWYQQKPGSSPKPLISATSNLASGIPARFSGSGSGTDYTLTISSLEPEDFATYYCQQWSYNPPTFGGGTKLELKR
notes: humanized from mouse-derived antibody 2; also called humanized antibody F
binding result [1]: binds

B2: Antibody I (antibody, human IgG1, kappa, V domains shown)
VH: EVKLVESGGGLVQPGGSLRLSCATSEFTLIDYYMSWVRQSPGKALEWLGYIRNKVNGHTTDYIASVKGRFTISRDDSKNSLYLQMNSLKTEDTATYYCVRDPGINWYFDVWGQGTLVTVSS
VL: QIVLTQSPATLSLSPGERATLSCRASSRVTYMHWYQQKPGSSPKPLISATSNLASGIPARFSGSGSGTDYTLTISSLEPEDFATYYCQQWSYNPPTFGGGTKLELKR
notes: humanized from mouse-derived antibody 2; also called humanized antibody I
binding result [1]: binds

B3: Antibody 10 (antibody, V domains shown)
VH: QVQLQQSGPELVRPGVSVKISCKGSGYTFTDFAMHWVRQSHSKSLEWVGIITTYGGDTNYNQKFRGKATMTVDRSSSTVFLELARLTSEDSAIYYCARNRAYRFFYAMDYWGQGTSVTVSS
VL: DIQMTQSPASLSASVGETVTITCGASENIYGALNWYQRKQGKSPHLLIYGATNLADGMSSRFSGSGSAGQYSLNISSLHPDDVATYYCQNVLFAPYTFGGGTRLEIK
notes: Mouse-derived hybridoma antibody; also called mouse-derived antibody 10
EC50 (read off the curve) [2]: ~7 nM
EC50 (read off the curve) [3]: ~7 nM
EC50 (read off the curve) [4]: ~0.009 µg/mL
OD (mouse CEACAM5): 0.15 OD

B4: Antibody 11 (antibody, V domains shown)
VH: QVQLQQSGPELVRPGVSVKISCKGSGYTFTDFAIHWVRQSHSRSLEWVGIITTYGGDTNYNQKFRGKATMTVDKSSSTVFLELARLTSEDSAIYYCARNRAYRFFYAMDYWGQGTSVTVSS
VL: DIQMTQSPASLSASVGETVTITCGASENIYGALNWYQRKQGKSPQLLIYGATNLADGMSSRFSGSGSAGQYSLNISSLHPDDVATYYCQSVLFAPYTFGGGTRLEIK
notes: Mouse-derived hybridoma antibody; also called mouse-derived antibody 11
EC50 (read off the curve) [2]: ~4 nM
EC50 (read off the curve) [3]: ~4 nM
EC50 (read off the curve) [4]: ~0.01 µg/mL

B5: Antibody 9 (antibody, V domains shown)
VH: EVKLVESGGGLVQPGGSLRLSCATSEITFIDYYMSWVRQPPGKALEWLGLIRNKANGYTTEYSESVKGRFTISRDKSQSILYLQMNTLRVEDSATYYCARDPGINWYFDVWGAGTTVTVSS
VL: QNILSQSPTILSASPGEKVTMTCRASSSVSYMHWYQQKPGSSPKPWIYATSNLASGVPARFSGSGSGTSYSLTISRVEAEDVAIYFCQRWGYNPPTFGAGTKLELK
notes: Mouse-derived hybridoma antibody; also called mouse-derived antibody 9
EC50 (read off the curve) [2]: ~6 nM
EC50 (read off the curve) [3]: ~6 nM
EC50 (read off the curve) [4]: ~0.02 µg/mL
EC50 (read off the curve) (Human-CEACAM6 (AB)-His): ~0.01 µg/mL
